The target of the assay is tRNA pseudouridine synthase from archaea (Q8U2C1) (P. furiosus). Put plainly: mass photometry.

The term stoichiometry N denotes the number of molecules, sites or subunits per partner or assembly.

For “tRNA pseudouridine synthase from archaea (Q8U2C1) (enzyme)”, the stoichiometry N amounted to 2.

The values above are taken from publication doi:10.1101/2023.06.09.544317.
